Each block holds one substance with its values, some of them ahead of it.
Columns and labels:
[1] = molecular target: Casein (Hammerstein casein)
[2] = molecular target: Casein (Hammerstein casein); remark: listed apart in the source

specific caseinolytic activity at pH 6, against that of the Y195R variant [1]: 1.8 fold
Substance: KP-43 Y195I (Tyr195Ile) variant (enzyme)

specific caseinolytic activity at pH 10, against that of the Y195W variant [1]: 4.4 fold
Substance: KP-43 Y195Q (Tyr195Gln) variant (enzyme)

specific caseinolytic activity at pH 7, against that at pH 10 (series pH 6 to 10) [2]: 90%
Substance: KP-43 alkaline serine protease, wild type (enzyme)
